Experiment [1] has as its target Orai1-L2 (aa 136–186, mutation C143G) (human, UniProt Q96D31 136-186, C143G, conjugated to amino-functionalized AFM cantilever tips via a flexible NHS-PEG18-acetal cross-linker). Kind of experiment: AFM single-molecule force spectroscopy.
Experiment [2] deals with Orai3-L2 (aa 111–161, mutation C118G) (human, UniProt Q9BRQ5 111-161, C118G, conjugated to amino-functionalized AFM cantilever tips via a flexible NHS-PEG18-acetal cross-linker). Description: AFM single-molecule force spectroscopy.

The results in this text go back to paper PMC5787804 (2017).

Where no end group is shown, it is not given here. Side-chain parts run from the residue outwards. silicon chip = not defined here

Orai1-L2 (aa 136–186, mutation C143G), sequence (Q96D31 136-186 C143G): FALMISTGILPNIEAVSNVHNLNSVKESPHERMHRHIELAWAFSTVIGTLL

B1: Orai1-NT 70–91 (peptide)
peptide: SMQALSWRKLYLSRAKLKASSRC
modifications: added C-terminal cysteine for site-specific coupling; immobilized on silicon chips via NHS-PEG27-maleimide linkers
One may read the koff as the first-order rate constant of dissociation. Low readings indicate slow dissociation, high ones fast dissociation. For the molecule B1, the koff was determined as 1.9 s⁻¹ in experiment [1] and 0.23 s⁻¹ in experiment [2].

B2: Orai1-NT 79–91 (peptide)
peptide: LYLSRAKLKASSRC([NHS‑PEG27‑maleimide-silicon chip])
modifications: reading uncertain
Regarding B2, the koff in experiment [1] came out at 0.13 s⁻¹; in experiment [2], 0.09 s⁻¹.
